Test results reported in patent US20190144529A1 (UCB, published 2019).

Target: T1, human serum albumin (human, UniProt P02768 25-609)
T1 construct: mature; Bought purified serum albumin; also called HSA; Human albumin
Assay: SPR, Fab captured; albumin taken as HSA;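 further: antibody captured on the sensor surface, albumin injected for a 3 min association phase, then dissociation followed, with signals corrected against a blank flow cell and buffer-only injections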
Protocol: Each assay cycle consisted of firstly capturing the antibody sample using a 1 min injection, before an association phase consisting of a 3 min injection of albumin, after which dissociation was monitored. After each cycle, the capture surface was regenerated with two 1 min injections of 40 mM HCl followed by 30 s of 5 mM NaOH. The flow rates used were 10 μl/min for capture, 30 μl/min for both the association and dissociation phases, and 10 μl/min for regeneration. A blank flow-cell was used for reference subtraction and buffer-blank injections were included to subtract instrument noise and drift.

Binder | Kd [nM] | koff [s⁻¹] | kon [M⁻¹ s⁻¹]
CA645 gL4gH35 Fab (Fab, V domains shown, Fab: human gamma1 CH1, human kappa (Km3); Kabat numbering) VH: EVQLLESGGGLVQPGGSLRLSCAVSGIDLSNYAINWVRQAPGKGLEWIGIIWAEGTTFYATWAKGRFTISRDNSKNTVYLQMNSLRAEDTAVYYCARTVPGYSTAPYFDLWGQGTLVTVSS VL: DIQMTQSPSSVSASVGDRVTITCQSSPSVWSNFLSWYQQKPGKAPKLLIYEASKLTSGVPSRFSGSGSGTDFTLTISSLQPEDFATYYCGGGYSSISDTTFGGGTKVEIK | 15.1 | 0.000399 | 26500
CA645 gL23gH5 Fab (Fab, V domains shown, Fab: human gamma1 CH1, human kappa (Km3); Kabat numbering) VH: EVQLLESGGGLVQPGGSLRLSCAVSGIDLSNYAINWVRQAPGKGLEWIGIIWASGTTFYATWAKGRFTISRDNSKNTVYLQMNSLRAEDTAVYYCARTVPGYSTAPYFDLWGQGTLVTVSS VL: DIQMTQSPSSVSASVGDRVTITCQSSPSVWLNFLSWYQQKPGKAPKLLIYEASKLTSGVPSRFSGSGSGTDFTLTISSLQPEDFATYYCGGGYSSISDTTFGGGTKVEIK | 14.8 | 0.000814 | 54900
CA645 gL4gH34 Fab (Fab, V domains shown, Fab: human gamma1 CH1, human kappa (Km3); Kabat numbering) VH: EVQLLESGGGLVQPGGSLRLSCAVSGIDLSNYAINWVRQAPGKGLEWIGIIWAQGTTFYATWAKGRFTISRDNSKNTVYLQMNSLRAEDTAVYYCARTVPGYSTAPYFDLWGQGTLVTVSS VL: DIQMTQSPSSVSASVGDRVTITCQSSPSVWSNFLSWYQQKPGKAPKLLIYEASKLTSGVPSRFSGSGSGTDFTLTISSLQPEDFATYYCGGGYSSISDTTFGGGTKVEIK | 11 | 0.000422 | 38500
CA645 gL4gH33 Fab (Fab, V domains shown, Fab: human gamma1 CH1, human kappa (Km3); Kabat numbering) VH: EVQLLESGGGLVQPGGSLRLSCAVSGIDLSNYAINWVRQAPGKGLEWIGIIWALGTTFYATWAKGRFTISRDNSKNTVYLQMNSLRAEDTAVYYCARTVPGYSTAPYFDLWGQGTLVTVSS VL: DIQMTQSPSSVSASVGDRVTITCQSSPSVWSNFLSWYQQKPGKAPKLLIYEASKLTSGVPSRFSGSGSGTDFTLTISSLQPEDFATYYCGGGYSSISDTTFGGGTKVEIK | 6.18 | 0.00024 | 38900
CA645 gL20gH5 Fab (Fab, V domains shown, Fab: human gamma1 CH1, human kappa (Km3); Kabat numbering) VH: EVQLLESGGGLVQPGGSLRLSCAVSGIDLSNYAINWVRQAPGKGLEWIGIIWASGTTFYATWAKGRFTISRDNSKNTVYLQMNSLRAEDTAVYYCARTVPGYSTAPYFDLWGQGTLVTVSS VL: DIQMTQSPSSVSASVGDRVTITCQSSPSVWQNFLSWYQQKPGKAPKLLIYEASKLTSGVPSRFSGSGSGTDFTLTISSLQPEDFATYYCGGGYSSISDTTFGGGTKVEIK | 14.3 | 0.000794 | 55500
CA645 gL22gH5 Fab (Fab, V domains shown, Fab: human gamma1 CH1, human kappa (Km3); Kabat numbering) VH: EVQLLESGGGLVQPGGSLRLSCAVSGIDLSNYAINWVRQAPGKGLEWIGIIWASGTTFYATWAKGRFTISRDNSKNTVYLQMNSLRAEDTAVYYCARTVPGYSTAPYFDLWGQGTLVTVSS VL: DIQMTQSPSSVSASVGDRVTITCQSSPSVWHNFLSWYQQKPGKAPKLLIYEASKLTSGVPSRFSGSGSGTDFTLTISSLQPEDFATYYCGGGYSSISDTTFGGGTKVEIK | 8.58 | 0.000478 | 55700
CA645 gL21gH5 Fab (Fab, V domains shown, Fab: human gamma1 CH1, human kappa (Km3); Kabat numbering) VH: EVQLLESGGGLVQPGGSLRLSCAVSGIDLSNYAINWVRQAPGKGLEWIGIIWASGTTFYATWAKGRFTISRDNSKNTVYLQMNSLRAEDTAVYYCARTVPGYSTAPYFDLWGQGTLVTVSS VL: DIQMTQSPSSVSASVGDRVTITCQSSPSVWENFLSWYQQKPGKAPKLLIYEASKLTSGVPSRFSGSGSGTDFTLTISSLQPEDFATYYCGGGYSSISDTTFGGGTKVEIK | 6.34 | 0.000323 | 51000
CA645 gL18gH5 Fab (Fab, V domains shown, Fab: human gamma1 CH1, human kappa (Km3); Kabat numbering) VH: EVQLLESGGGLVQPGGSLRLSCAVSGIDLSNYAINWVRQAPGKGLEWIGIIWASGTTFYATWAKGRFTISRDNSKNTVYLQMNSLRAEDTAVYYCARTVPGYSTAPYFDLWGQGTLVTVSS VL: DIQMTQSPSSVSASVGDRVTITCQSSPSVWINFLSWYQQKPGKAPKLLIYEASKLTSGVPSRFSGSGSGTDFTLTISSLQPEDFATYYCGGGYSSISDTTFGGGTKVEIK | 15.5 | 0.000823 | 53200

The next binders have a lower Kd than those just listed; values first:

Kd [nM] | koff [s⁻¹] | kon [M⁻¹ s⁻¹] | Binder
4.18 | 0.000167 | 40000 | CA645 gL4gH31 Fab (Fab, V domains shown, Fab: human gamma1 CH1, human kappa (Km3); Kabat numbering) VH: EVQLLESGGGLVQPGGSLRLSCAVSGIDLSNYAINWVRQAPGKGLEWIGIIWAVGTTFYATWAKGRFTISRDNSKNTVYLQMNSLRAEDTAVYYCARTVPGYSTAPYFDLWGQGTLVTVSS VL: DIQMTQSPSSVSASVGDRVTITCQSSPSVWSNFLSWYQQKPGKAPKLLIYEASKLTSGVPSRFSGSGSGTDFTLTISSLQPEDFATYYCGGGYSSISDTTFGGGTKVEIK
5 | 0.00026 | 52000 | CA645 gL19gH5 Fab (Fab, V domains shown, Fab: human gamma1 CH1, human kappa (Km3); Kabat numbering) VH: EVQLLESGGGLVQPGGSLRLSCAVSGIDLSNYAINWVRQAPGKGLEWIGIIWASGTTFYATWAKGRFTISRDNSKNTVYLQMNSLRAEDTAVYYCARTVPGYSTAPYFDLWGQGTLVTVSS VL: DIQMTQSPSSVSASVGDRVTITCQSSPSVWDNFLSWYQQKPGKAPKLLIYEASKLTSGVPSRFSGSGSGTDFTLTISSLQPEDFATYYCGGGYSSISDTTFGGGTKVEIK
4.62 | 0.000277 | 60100 | CA645 gL15gH5 Fab (Fab, V domains shown, Fab: human gamma1 CH1, human kappa (Km3); Kabat numbering) VH: EVQLLESGGGLVQPGGSLRLSCAVSGIDLSNYAINWVRQAPGKGLEWIGIIWASGTTFYATWAKGRFTISRDNSKNTVYLQMNSLRAEDTAVYYCARTVPGYSTAPYFDLWGQGTLVTVSS VL: DIQMTQSPSSVSASVGDRVTITCQSSPSVWRNFLSWYQQKPGKAPKLLIYEASKLTSGVPSRFSGSGSGTDFTLTISSLQPEDFATYYCGGGYSSISDTTFGGGTKVEIK
3.06 | 0.000169 | 55300 | CA645 gL16gH5 Fab (Fab, V domains shown, Fab: human gamma1 CH1, human kappa (Km3); Kabat numbering) VH: EVQLLESGGGLVQPGGSLRLSCAVSGIDLSNYAINWVRQAPGKGLEWIGIIWASGTTFYATWAKGRFTISRDNSKNTVYLQMNSLRAEDTAVYYCARTVPGYSTAPYFDLWGQGTLVTVSS VL: DIQMTQSPSSVSASVGDRVTITCQSSPSVWWNFLSWYQQKPGKAPKLLIYEASKLTSGVPSRFSGSGSGTDFTLTISSLQPEDFATYYCGGGYSSISDTTFGGGTKVEIK
4.38 | 0.000169 | 38600 | CA645 gL4gH32 Fab (Fab, V domains shown, Fab: human gamma1 CH1, human kappa (Km3); Kabat numbering) VH: EVQLLESGGGLVQPGGSLRLSCAVSGIDLSNYAINWVRQAPGKGLEWIGIIWAIGTTFYATWAKGRFTISRDNSKNTVYLQMNSLRAEDTAVYYCARTVPGYSTAPYFDLWGQGTLVTVSS VL: DIQMTQSPSSVSASVGDRVTITCQSSPSVWSNFLSWYQQKPGKAPKLLIYEASKLTSGVPSRFSGSGSGTDFTLTISSLQPEDFATYYCGGGYSSISDTTFGGGTKVEIK
5.5 | 0.000323 | 58800 | CA645 gL17gH5 Fab (Fab, V domains shown, Fab: human gamma1 CH1, human kappa (Km3); Kabat numbering) VH: EVQLLESGGGLVQPGGSLRLSCAVSGIDLSNYAINWVRQAPGKGLEWIGIIWASGTTFYATWAKGRFTISRDNSKNTVYLQMNSLRAEDTAVYYCARTVPGYSTAPYFDLWGQGTLVTVSS VL: DIQMTQSPSSVSASVGDRVTITCQSSPSVWNNFLSWYQQKPGKAPKLLIYEASKLTSGVPSRFSGSGSGTDFTLTISSLQPEDFATYYCGGGYSSISDTTFGGGTKVEIK
